Drawing on PMC5397206, this text covers catalytic efficiency of Prp43 ATPase (kcat/KM), Pfa1FL versus Pfa1GP for one molecule.

The target of this assay is Prp43 (yeast) (UniProt P53131).
UniProt P53131, sequence (P53131 whole entry): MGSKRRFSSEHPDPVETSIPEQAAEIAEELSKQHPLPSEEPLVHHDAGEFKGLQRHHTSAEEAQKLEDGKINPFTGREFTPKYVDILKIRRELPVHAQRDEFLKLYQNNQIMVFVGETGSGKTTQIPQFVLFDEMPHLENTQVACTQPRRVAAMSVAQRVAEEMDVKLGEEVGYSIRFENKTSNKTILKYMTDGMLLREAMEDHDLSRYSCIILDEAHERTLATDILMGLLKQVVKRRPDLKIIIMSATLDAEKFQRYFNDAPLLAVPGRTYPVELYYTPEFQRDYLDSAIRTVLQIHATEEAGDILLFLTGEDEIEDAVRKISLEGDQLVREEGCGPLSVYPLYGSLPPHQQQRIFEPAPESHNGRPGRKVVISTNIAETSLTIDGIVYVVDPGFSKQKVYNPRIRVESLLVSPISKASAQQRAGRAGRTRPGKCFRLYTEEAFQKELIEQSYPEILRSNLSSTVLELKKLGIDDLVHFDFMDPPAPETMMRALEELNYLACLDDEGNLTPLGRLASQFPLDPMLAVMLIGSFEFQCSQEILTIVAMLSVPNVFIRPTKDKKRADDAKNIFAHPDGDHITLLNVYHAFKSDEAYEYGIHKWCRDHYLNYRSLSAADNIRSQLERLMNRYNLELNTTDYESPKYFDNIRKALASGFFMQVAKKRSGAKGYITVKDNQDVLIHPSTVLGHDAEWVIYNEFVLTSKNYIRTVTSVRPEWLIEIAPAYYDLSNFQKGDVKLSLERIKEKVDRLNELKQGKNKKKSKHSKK

B1: Pfa1 full-length (Pfa1FL) (natural protein)
chain: MAKRHSHYQGSRRRHARGSNSKKAGRGNAKGIQGRKIKKKPTPTNSWHNSSIPLGEGDLDDVGADFNPGRAFISPKTIEDYYFGRDAKSRSMKMGGLRPGNRYDSSTDLQAGRAAFRKRPMQFVKAKEVYDPSHNMIQKLRAKNETKNSEEIVEREADVFEEPGKMTSDVEYINNEDSENEDDDSQNSPSTDHSLSSNESKVEDGDLFFVDEEAQQSPDLTKIKRVCIEEIARPREVAIEFDPILTIGKVELSVSEGNESKEISVDVPNKGNKTYHPFAGYISNVLHGMHTSDSDNDELDYEIETENNSEPLYESSASSEVDQGFNYVGQRHNSRADNNLLPSPSPQLTEDIKCLSINGTKTFEGNNDNLPSPASEELEFGFKEEDFVINTNDIVVSNIRMGGVDNSYYLRCYRLLGDYDFHWIDQDLLTDFVVDELGLPEDRLPAYLNFIKNSLIPKIEPAEPTYSDIPISDSSDEGDSYEGDSYEDDEDMASSVVHSDIEEGLDDLIAYTLKHDTERFKTFETKSLETKGKGKKKKLLIDDALALDTETLETLQSKFSKRIETKAKKRKAKEDFIDQENRNSNDMLKKYPYGLHIQNIKDEFESFLSRNNDRLTFPPLDPHGNKTVMKIAKHYNMKSSKIGKANHTSVVVEKIKKTKWSSPNYSLIDQLMRQRPVFMRIDIRRPREEQAAFERTKTIRGKFHVKEGEIVGQNAPEIGNENIGRRMLEKLGWKSGEGLGIQGNKGISEPIFAKIKKNRSGLRHSES
In the case of B1, the catalytic efficiency of Prp43 ATPase (kcat/KM), Pfa1FL versus Pfa1GP was determined as 3 fold.
